According to publication PMC2920948, “Structural Comparison of Human Mammalian Ste20-Like Kinases” (PLoS ONE, 2010):

Target: the molecule itself
Assay: AUC; sedimentation velocity; 30 µM unphosphorylated protein in 50 mM HEPES pH 7.5, 100 mM NaCl; 45,000 rpm; c(s) analysis with SEDFIT; monomer and dimer peaks

B1: MST4 kinase domain (residues 1-300), unphosphorylated (domain or fragment)
chain: not shown
notes: MST4 (mammalian Ste20-like kinase 4), human, residues 1-300 with the kinase domain, cloned from a Mammalian Gene Collection clone into pLIC-SGC1; Phosphorylation was removed with lambda-phosphatase; also called mammalian Ste20-like kinase 4; source: E. coli BL-21(DE3)-R3-pRARE2, purified (Ni-NTA, TEV cleavage, lambda-phosphatase, Superdex 200 SEC, MonoQ); not shown: His6, N-terminal, cleaved
stoichiometry N: 2
